Experimental data taken from article PMC4275594 (Nature Communications, 2014).

Tests used:
Settings in all cases: both partners purified
[1] = biological target: T1, IL-18 receptor β extracellular domains (residues 15-356), construct for crystallography (human, UniProt O95256-1 15-356); assay: crystal structure; IL-18/IL-18Rα/IL-18Rβ ternary complex, 3.10 Å, one copy in the asymmetric unit, data at 100 K (PDB 3WO4)
T1 construct: human IL-18 receptor β, extracellular domains, residues 15-356 of NM_003853; also called IL-18Rβ; source: Sf9 insect cells, secreted, purified (ion exchange, Ni-NTA, gel filtration with or without HRV 3C treatment)
T1 sequence (looked up): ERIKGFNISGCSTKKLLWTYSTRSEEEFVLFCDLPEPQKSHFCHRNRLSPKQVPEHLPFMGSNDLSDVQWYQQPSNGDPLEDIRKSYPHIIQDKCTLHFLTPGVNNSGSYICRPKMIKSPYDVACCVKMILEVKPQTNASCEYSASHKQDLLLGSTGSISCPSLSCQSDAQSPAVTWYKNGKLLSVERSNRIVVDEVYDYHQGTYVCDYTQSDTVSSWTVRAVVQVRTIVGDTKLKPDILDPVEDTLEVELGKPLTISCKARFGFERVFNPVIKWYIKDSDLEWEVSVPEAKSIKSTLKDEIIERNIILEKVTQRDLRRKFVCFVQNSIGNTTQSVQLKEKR

[2] = biological target: T2, preformed binary complex of IL-18 wild type and un-tagged IL-18Rα N236Q extracellular domain (human, UniProt Q14116 37-193; Q13478 20-329, N236Q); assay: SPR; BIAcore 3000, 25 °C; C-terminal 6xHis IL-18Rβ (wild type or mutant) immobilised at about 100 RU on a Ni-NTA sensor chip; un-tagged IL-18Rα saturated with 500 nM IL-18 (preformed binary complex) injected as analyte in HBS-P; triplicate
T2 construct: interleukin-18, human, mature IL-18 (residues 1-157); numbers count on: the mature protein; IL-18 receptor alpha, human, extracellular domains, residues 20-329 of NM_003855; lacks the N-linked sugar chain on N236; also called IL-18WT/IL-18Rα mutant complex; IL18/IL18Rα-N236Q; source: IL-18: E. coli BL21(DE3), purified; IL-18Rα: silkworm larvae haemolymph, purified; un-tagged IL-18Rα saturated …

[3] = biological target: T3, preformed binary complex of IL-18 wild type and un-tagged IL-18Rα wild type extracellular domain (human, UniProt Q14116 37-193; Q13478 20-329); assay: as above
T3 construct: interleukin-18, human, mature IL-18 (residues 1-157); numbers count on: the mature protein; IL-18 receptor alpha, human, extracellular domains, residues 20-329 of NM_003855; also called IL-18 WT/IL-18Rα WT complex; IL-18/IL-18Rα; source: IL-18: E. coli BL21(DE3), purified; IL-18Rα: silkworm larvae haemolymph, purified; un-tagged IL-18Rα saturated with 500 nM IL-18

[4] = biological target: T4, IL-18WT/IL-18Rα N236Q complex (SPR analyte) (human, UniProt Q14116 37-193; Q13478 20-329, N236Q); assay: SPR; BIAcore 3000, 25 °C, C-terminal 6xHis IL-18Rβ immobilised (~100 RU) on an NTA sensor chip, un-tagged IL-18Rα saturated with 500 nM IL-18 as analyte in HBS-P
T4 construct: human interleukin-18, mature IL-18 (residues 1-157); numbers count on: the mature protein; human IL-18 receptor α, extracellular domains, residues 20-329 of NM_003855, used instead of the un-tagged wild type; The mutation removes the N-linked sugar chain at Asn236; also called N236Q^Rα; source: IL-18: E. coli BL21(DE3), purified; IL-18Rα mutant: silkworm larvae haemolymph, purified; IL-18Rα …

[5] = biological target: T5, IL-18 WT/IL-18Rα WT complex (SPR analyte) (human, UniProt Q14116 37-193; Q13478 20-329); assay: as above
T5 construct: human interleukin-18, mature IL-18 (residues 1-157); numbers count on: the mature protein; human IL-18 receptor α, extracellular domains, residues 20-329 of NM_003855, printed as un-tagged; also called IL-18/IL-18Rα binary complex; IL-18 WT(control); source: IL-18: E. coli BL21(DE3), purified; IL-18Rα: silkworm larvae haemolymph, purified; un-tagged IL-18Rα saturated with 500 nM IL-18

B1: IL-18 receptor α extracellular domains (residues 20-329), construct for crystallography (domain or fragment, human, UniProt Q13478 20-329, looked up)
chain: ESCTSRPHITVVEGEPFYLKHCSCSLAHEIETTTKSWYKSSGSQEHVELNPRSSSRIALHDCVLEFWPVELNDTGSYFFQMKNYTQKWKLNVIRRNKHSCFTERQVTSKIVEVKKFFQITCENSYYQTLVNSTSLYKNCKKLLLENNKNPTIKKNAEFEDQGYYSCVHFLHHNGKLFNITKTFNITIVEDRSNIVPVLLGPKLNHVAVELGKNVRLNCSALLNEEDVIYWMFGEENGSDPNIHEEKEMRIMTPEGKWHASKVLRIENIGESNLNVLYNCTVASTGGTDTKSFILVRKADMADIPGHVFTR
modifications: N-linked glycosyl chains at Asn91, 102, 150, 197, 203, 236 and 297 (high-mannose glycans, Sf9)
notes: human IL-18 receptor α, extracellular domains, residues 20-329 of NM_003855; also called IL-18Rα; source: Sf9 insect cells, secreted, purified (ion exchange, Ni-NTA, gel filtration with or without HRV 3C treatment)
[1]
  binding result: binds

B2: human IL-18 receptor beta extracellular domain (residues 15-356), C-terminal 6xHis, wild type, from silkworm (receptor, UniProt O95256-1 15-356, looked up)
chain: ERIKGFNISGCSTKKLLWTYSTRSEEEFVLFCDLPEPQKSHFCHRNRLSPKQVPEHLPFMGSNDLSDVQWYQQPSNGDPLEDIRKSYPHIIQDKCTLHFLTPGVNNSGSYICRPKMIKSPYDVACCVKMILEVKPQTNASCEYSASHKQDLLLGSTGSISCPSLSCQSDAQSPAVTWYKNGKLLSVERSNRIVVDEVYDYHQGTYVCDYTQSDTVSSWTVRAVVQVRTIVGDTKLKPDILDPVEDTLEVELGKPLTISCKARFGFERVFNPVIKWYIKDSDLEWEVSVPEAKSIKSTLKDEIIERNIILEKVTQRDLRRKFVCFVQNSIGNTTQSVQLKEKR
notes: IL-18 receptor beta, human, extracellular domains, residues 15-356 of NM_003853; also called IL-18Rβ; IL-18Rβ WT; source: silkworm (B. mori) larvae, BmNPV bacmid, haemolymph, purified (ion exchange, Ni-NTA, gel filtration); not shown: 6xHis, C-terminal, kept
[2]
  kon: 12000 M⁻¹ s⁻¹
[3]
  kon: 11000 M⁻¹ s⁻¹

B3: C-terminal 6xHis tagged IL-18Rβ extracellular domains (residues 15-356), for SPR (domain or fragment, human, UniProt O95256-1 15-356, looked up)
chain: ERIKGFNISGCSTKKLLWTYSTRSEEEFVLFCDLPEPQKSHFCHRNRLSPKQVPEHLPFMGSNDLSDVQWYQQPSNGDPLEDIRKSYPHIIQDKCTLHFLTPGVNNSGSYICRPKMIKSPYDVACCVKMILEVKPQTNASCEYSASHKQDLLLGSTGSISCPSLSCQSDAQSPAVTWYKNGKLLSVERSNRIVVDEVYDYHQGTYVCDYTQSDTVSSWTVRAVVQVRTIVGDTKLKPDILDPVEDTLEVELGKPLTISCKARFGFERVFNPVIKWYIKDSDLEWEVSVPEAKSIKSTLKDEIIERNIILEKVTQRDLRRKFVCFVQNSIGNTTQSVQLKEKR
notes: human IL-18 receptor β, extracellular domains, residues 15-356 of NM_003853; also called IL-18Rβ WT; IL-18Rβ WT (control); source: silkworm (B. mori) larvae, BmNPV bacmid, haemolymph, purified as from Sf9; not shown: 6xHis, C-terminal, kept
[4]
  Kd: 17 nM
[5]
  Kd: 15 nM
